Reference: US6339070B1, “Gene construct encoding a heterologous prodrug-activating enzyme and a cell targeting moiety” (Zeneca Limited, priority 1997, dated 2002)
Entries after “also recorded” stand apart in the source; their conditions may differ.

Columns and labels:
[1] = target: T1, human carcinoembryonic antigen (CEA) (Homo sapiens, UniProt P06731); experiment: CEA-binding ELISA, anti human kappa light chain reporter antibody; conditions: COS-7 transient expression supernatant
T1 sequence (P06731 35-676): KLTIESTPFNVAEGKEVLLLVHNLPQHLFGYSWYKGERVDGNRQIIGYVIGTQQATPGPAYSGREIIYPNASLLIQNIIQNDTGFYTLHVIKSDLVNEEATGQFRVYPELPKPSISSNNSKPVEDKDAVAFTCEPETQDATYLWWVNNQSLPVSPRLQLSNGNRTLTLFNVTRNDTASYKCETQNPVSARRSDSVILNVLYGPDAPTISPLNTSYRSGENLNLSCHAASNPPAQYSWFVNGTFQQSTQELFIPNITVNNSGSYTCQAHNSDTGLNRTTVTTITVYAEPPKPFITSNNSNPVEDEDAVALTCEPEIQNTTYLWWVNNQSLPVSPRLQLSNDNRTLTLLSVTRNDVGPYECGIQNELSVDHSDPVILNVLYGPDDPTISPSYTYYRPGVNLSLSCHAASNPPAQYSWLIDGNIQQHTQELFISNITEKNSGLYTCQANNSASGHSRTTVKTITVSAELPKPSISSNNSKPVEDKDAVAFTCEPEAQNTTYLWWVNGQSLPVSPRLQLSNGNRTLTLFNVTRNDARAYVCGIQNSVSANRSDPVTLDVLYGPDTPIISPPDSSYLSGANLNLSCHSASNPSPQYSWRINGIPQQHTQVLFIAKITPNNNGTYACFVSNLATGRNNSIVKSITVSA
Procedure: For the CEA ELISA each well of a 96 well immunoplate (NUNC MAXISORB™) was coated with 50 ng CEA in 50 mM carbonate/bicarbonate coating buffer pH9.6 (buffer capsules—Sigma C3041) and incubated at 4° overnight. The plate was washed three times with PBS-TWEEN™ (PBS+0.05% TWEEN™ 20) and then blocked 150 μl per well of 1% BSA in PBS-TWEEN™ for 1 hour at room temperature. The plate was washed three times with PBS-TWEEN™, 100 μl of test sample added per well and incubated at room temperature for 2 hours. The plate was washed three times with PBS-TWEEN™, 100 μl per well of a 1/500 dilution of HRPO-labelled goat anti-human kappa antibody (Sigma A 7164) was added in 1% BSA in PBS-TWEEN™ and incubated at room temperature on a rocking platform for at least 1 hour. The plate was washed three times with PBS-TWEEN™ and then once more with PBS. To detect binding, add 100 μl per well of developing solution (one capsule of phosphate-citrate buffer—Sigma P4922—dissolved in 100 ml H2O to which is added one 30 mg tablet o-phenylenediamine dihydrochloride—Sigma P8412) and incubated for up to 15 minutes. The reaction was stopped by adding 75 μl 2M H2SO4, and absorbance read at 490 nm.

[2] = system: CEA positive LoVo parental line; experiment: Cell based ELISA of secreted fusion protein, CEA positive cells; conditions: increasing amounts of added fusion protein, listed as (A5B7-CPG2)2 fusion protein
Procedure: (§1) Cells were seeded into 96 well plates (Becton Dickinson Biocoat™ poly-D-Lysine, 35-6461) at a density of 1×10^4 cells per well in 100 μl normal culture media and left about 40 h at 37°. 100 μl of 6% formaldehyde was diluted in DMEM and left for 1 hour at 4°. Plates were centrifuged and washed 3 times in PBS containing 0.05% Tween™ by immersion soaking (first two washes for 2 minutes and the final wash for 5 minutes).
(§2) 100 μl of doubling dilutions of cell culture supernatant containing fusion protein or chimeric A5B7 anti-CEA were added to each well as appropriate and the plates incubated overnight at 4°. The plates were washed as described above and, in the case of chimaeric fusion proteins. 100 μl of 1:1000 dilution of HRP labelled anti-human kappa antibody (Sigma A-7164) was added and incubated for 2 hours at room temperature (an anti-CPG2 detection methodology can be used in the case of murine scFv fusion proteins). The plates were washed as described above and HRP detected using OPD substrate (Sigma P-8412). Colour was allowed to develop for about 5 min, stopped with 75 μl per well of 2M H2SO4 and OD read at 490 nm.
(§3) In the case of the (A5B7-CPG2)2 fusion protein, material was produced in the supernatant from recombinant Colo32ODM tumour cells (CEA-ve). The fusion protein content was measured by use of the CEA ELISAs described above. […]

CEA negative cell lines = experiment: Cell based ELISA of secreted fusion protein, CEA negative cells; conditions: increasing amounts of added fusion protein; listed as (A5B7-CPG2)2 fusion protein
Procedure: as §1, §2, §3

[3] = Enzyme activity in tumour xenograft samples (methotrexate turnover, HPLC); assay type: in vivo, athymic nude mice; conditions: 20% recombinant: 80% parental LoVo tumours
Procedure: Recombinant LoVo fusion protein (A5B7-CPG2)2 expressing tumour cells or mixes of recombinant and parental LoVo cells were injected subcutaneously into athymic nude mice (10^7 tumour cells per mouse). The tumour growth rates for both 100% recombinant and 20%: 80% mixes of recombinant:parental LoVo cells were compared to those of parental cell only tumours.
To act as a standard for the assay, a CPG2 enzyme standard curve was prepared in 20% homogenate of normal tumour (parental cell tumour). Subsequent dilutions of samples were made in the same 20% homogenate of normal tumour.
Excised tumour tissue is removed from −80° storage (previously flash frozen in liquid nitrogen) and allowed to thaw. Any residual skin tissue was removed before the tumour was cut up in to small fragments with a scalpel. The tumour tissue was transferred to a preweighed tube and the weight of tumour tissue measured. PBS containing 0.2 mM ZnCl2 solution was added to each tumour sample to give a 20% (w/v) mix, homogenised and placed on ice. Dilutions of sample tumours (in 20% normal tumour homogenate) were prepared e.g. neat, 1/10, 1/20 and 1/40.
For the standard curve, dilutions of CPG2 enzyme were made to the following concentrations to a final volume of 400 μl. Similarly, 400 μl of each of the recombinant tumour sample dilutions were also prepared. After equilibration to 30°, 4 μl of 10 mM methotrexate (MTX) solution was added. The reaction was stopped after exactly 10 minutes by adding 600 μl ice cold methanol+0.2% TFA, centrifuged and the supematant collected. The substrate and product in the supernatant were then separated by HPLC (using a Cation Exchange Column, HICROM™ S5SCX-100 A, mobile phase=60% methanol, 40% 60 mM ammonium formate/0.1% TFA, detection 300 nm). To calculate enzyme activity in the tumour tissue, the standard curve was plotted as units of area of methotrexate metabolite (the standards are such that only 20-30% of the substrate is metabolised so ensuring this is not rate limiting). The test samples were analysed by comparing the unit area of metabolite against the standard curve and then multiplying by the dilution factor. Finally, making the working assumption that 1 ml=1 g the results were multiplied by 5 (as the samples were originally diluted to a 20% homogenate).

B1: (A5B7 Fab-CPG2)2 fusion protein: chimaeric A5B7 anti-CEA Fab, heavy chain Fd linked via (G4S)3 linker to CPG2 R6, dimerised through CPG2 (antibody)
heavy: EVKLVESGGGLVQPGGSLRLSCATSGFTFTDYYMNWVRQPPGKALEWLGFIGNKANGYTTEYSASVKGRFTISRDKSQSILYLQMNTLRAEDSATYYCTRDRGLRFYFDYWGQGTTLTVSSASTKGPSVFPLAPCSRSTSESTAALGCLVKDYFPEPVTVSWNSGALTSGVHTFPAVLQSSGLYSLSSVVTVPSSNFGTQTYTCNVDHKPSNTKVDKTVGGGGSGGGGSGGGGSQKRDNVLFQAATDEQPAVIKTLEKLVNIETGTGDAEGIAAAGNFLEAELKNLGFTVTRSKSAGLVVGDNIVGKIKGRGGKNLLLMSHMDTVYLKGILAKAPFRVEGDKAYGPGIADDKGGNAVILHTLKLLKEYGVRDYGTITVLFNTDEEKGSFGSRDLIQEEAKLADYVLSFEPTSAGDEKLSLGTSGIAYVQVQITGKASHAGAAPELGVNALVEASDLVLRTMNIDDKAKNLRFQWTIAKAGQVSNIIPASATLNADVRYARNEDFDAAMKTLEERAQQKKLPEADVKVIVTRGRPAFNAGEGGKKLVDKAVAYYKEAGGTLGVEERTGGGTDAAYAALSGKPVIESLGLPGFGYHSDKAEYVDISAIPRRLYMAARLIMDLGAGK
light: QTVLSQSPAILSASPGEKVTMTCRASSSVTYIHWYQQKPGSSPKSWIYATSNLASGVPARFSGSGSGTSYSLTISRVEAEDAATYYCQHWSSKPPTFGGGTKLEIKRTVAAPSVFIFPPSDEQLKSGTASVVCLLNNFYPREAKVQWKVDNALQSGNSQESVTEQDSKDSTYSLSSTLTLSKADYEKHKVYACEVTHQGLSSPVTKSFNRGEC
CEA binding in anti-CEA ELISA [1]: binding of protein at levels commensurate with a bivalent A5B7 antibody molecule | binding to CEA positive cells (OD 490 nm) [2]: increased levels of binding with increasing amounts of added fusion protein; also recorded: binds specifically to a CEA positive cell line in a dose dependant manner | binding to CEA negative cells (OD 490 nm) (CEA negative cell lines): only constant background binding levels throughout; also recorded: do not bind to CEA negative lines | average enzyme activity in tumour ([3]; day 5): 0.26 U/g | range of enzyme activity in tumour ([3]; day 5): 0.18-0.36 U/g | average enzyme activity in tumour ([3]; day 12): 0.65 U/g | range of enzyme activity in tumour ([3]; day 12): 0.19-1.1 U/g
